The record followed here is PMC4117528.

The target of data set [1] is PhaP from Azotobacter sp. FA8 (Azotobacter sp. FA8). The data set can be described thus: SEC-MALS; 90° static light scattering (PD2010) with differential refractometer in tandem with analytical Superdex 200; 25 µM protein; 20 mM sodium phosphate pH 7.4, 150 mM NaCl, 1 mM DTT; average molecular weight of the oligomer.
Data set [2] in a line: SEC; analytical Superdex 200 calibrated with globular proteins; 25 µM protein; 20 mM sodium phosphate, 50 mM NaCl pH 7.3, 1 mM DTT.

In turn, “PhaP from Azotobacter sp. FA8 (natural protein)” had a stoichiometry N in data set [1] of 4.
For the substance PhaP from Azotobacter sp. FA8, the “apparent number of monomers (SEC, globular calibration)” value in data set [2] was “This molecular weight corresponds to 9 monomers”.
